Reference: the DeepSol protein solubility set

experiment: soluble on expression in E. coli; label from the status in PepcDB or PDB records

Sequence | soluble on expression in E. coli
GPGSMRVDVEAVFEKIRPALEVAEVGAWSKTDITTFMSLVSGFCDIQRQQLRARRGKRRDGHDCEQNVDKEGGCEDGCGVRGEDGDKEDEASLEADSVVVLEIRRSLTKLRHYLQKRIPYGSISEPVVPPAPTSPQEGENSCGGRGAYKALQSSKPVEPPVCAVDAFLYLEEDIDALADQGHISREYCRSCGSVDIGLCQFITHSFSLEQLIFLSCFLLPSFGDTSYCLTSDNVWRPRHKNCHTVAAAFSCEHVVEVGSRLGIVPMSCYFASEQQRLLNTRRVTAIELDKELVALQQEVFQKFARGPTAAHLNLVHSDCFEGEGLEALRSADIIILHNIFEYFTASAEEHLRSWKRLRAAVVRSGQLLVCCPPLQETLAAFSEDCVRKVFINEQDKVDFVHVHQSNSNAGRISRKRCRQPPQEHSFTLDQWWRSWVKEIDVEHIRRSFLTAQRFCEEDHPCDSSYGDADDELVKELKDMRVYMVQ | not soluble
GPGSMSALWAQVRQTVESEWDKTIVPAISAYIEVPNQSPQFDPEWATNGLQEKAFGILIDWMNAQNVQGLTYDYITADGRTPFLLVEIAGTEPTNNTVLMYGHMDKQPPLRPWAEGLDPHKAVVRDGKLYGRGGADDGYALFAAVTAISSLQRHGIPHGRVVITIEAGEESGSPDLDYYMERCKERIGKVDLMVCLDSGSMNYSQVWLTTSLRGVAIGELTVQTLTESMHSGVAGGVVPDTFRITRELLSRIEDCKTGEVTIPEAHCEIPPNAVKAAEAMKTVPFKEQFAMAAGVATVPGDNVELAIQNFWKPSLTVTGANLPDPQIAGNVIRTHTTVKLSMRLPPLVKAEAALQAMKRILEADPPYGAKVAFKGVGAGNGCAAPELKPWLQEVLHEGSTEAFGNTYACQGMGGAIPFIGMLIDMYPEAQFVVTGLLGPQSNAHGPNEFLHIPYAKGLTYSIARVVAAHLHNTPK | soluble
GPGSMSDDTRYMYPARKAHAMDLGSSLNPEGDQKQTWGSVASVADAMSPTAEIKPSAPQVTHFGTGLGMQSSTGDPTLQEADSDGDKTEAVNEFDLAAYSKEDLTQTLHKRIMSRMFSAFDVTQVGYLDINKLKELCVYVGRNMSQEASEKMFDELKGIDGHITFDVFWNWWTTYPDTKMTKDTFSLVSADFSVPYHQQQLKIKDEGEIFTPSYRVKYYFKDMETGLRRRVSPWHDVPLYVRDPVRTKPENIRANRYNFICEIPKWTRAKFEIATGEPFNPIKQDIKNGVPRFYKHGDMMWNYGAFPQTWESTEVIFEDGVSGDNDPIDGVEIGMRQMRVGEIHPVRILGVLGMIDDGQMDWKVICMSVNDPVARFIKDIDDIPKFLPGCLDALREWFRVYKICQGGVENKFAFNGEYKDKTYAMKVVDESHYMWENLRKIKKKEEV | soluble
GPGSMSGAGNLRSNRRREMDYMRLCNSTRKVYPSDTVAEFWVEFKGPEGTPYEDGTWMLHVQLPSDYPFKSPSIGFCNRILHPNVDERSGSVCLDVINQTWTPMYQLENIFDVFLPQLLRYPNPSDPLNVQAAHLLHADRVGFDALLREHVSTHATPQKALESIPEAYRPHDNTHEEEPDEANAKDTASDGPVNAGHSKGLTDSSVTPTEDHRVMHDDIAIDGDEDVEAEYEPEEIDL | soluble
GPGSMSHSALAYAACPMCTRVVHMGQMLHHILSTHKEQDPAYWMRLCNARLALYERVTGAPLEGTETMRDACLAQATAAVAEAADSEAMVPGGLSLSTPLSTHDALRPFLPTVSETGTYTCNWCALRSVAFSSRDAFLLHVAKDHPKLDFDVVESLVPQPLTVSSRAARNEGTGTPAPRAPAAESDVTVSDSWTRQQRGGAGCVGAASNSHAAEGFDVAYPVRRMPGVRTVQDTNVVTVKPEVHQLGTSVGRVGRNAFDPAPISTGGRRSRAAVSASSTASATAVANDLHFDKDCFPCELCFRVFVSELNLLQHLESKHTNPTTLASVSDASVERAAPPGTASASSTAAASPSSVEVFVVCDRCTDRKKVFRSSSALFSHIRFRHPAEDAAYETERMIEEQRQSRVFQCPHCRYRHPDMTRLDTHMRDAHGVVGCAGEKTIRGGRVVSGTAQPHGSAELKTAQPSLFSALPPVTVRTRFWCSVCEKGFANASALYAHTESKHTTIASLYPCPACKREFRDVPSLESHVQLCHKNLSLKDMGLQSSVECPDCLRHFLNYESLHDHAVRHHGKSAIAPVRSFVTPVSASTAGEGVGVAAAVPVPGTSTDASGSTTSPLAVAAPPKPRKVTRRKKEPSTAATES | not soluble
GPGSMSRSKEPPLPEELRTRLGQMDGCATAESWESVGNECFSHGCHLSAIRCYTKALEKGSDTANLRSSRSAAYMKSSMFAGPSLALKDAERAAELEPGRCEAHLRVGDAQLARKKYAEAKAAYQKAIELDGSCTAATHALRIVERELFLRSLDEQKKFSPVTEKPSGENTGTTSTGSNAEGPLNMEEEIKKRIQLWAEDTTVREDRTAMRAFNARLDEADRQAGTKYKSELLLKFRGKMAAQEPFRRMVEERRDQEMRMGEGIDYRNADSYRAILTKGTDGVGLGISTDAYKSYKYESKMW | not soluble
GPGSMSVLVKGWGRGTCKINHIRDDDISSSESEGDDANVAVPLEELNVGTQHMITEEMRFRLRRKEKLSVQDDELGRLREAMRRQVFASGLLQPGQSAGVAPRRAEIIFSCAVEIQSSGLMEEAPTASPRVGDTSAWLKQLRKFILDRVPFQRSVRVMVPRTWLARAQETDVV | not soluble
GPGSMWALTCRPIQNTEALQLMERYKAHNALQSNQWLLPRHLACFAVRPLYPAQLVLPTSSVIRLPLSAVPFSSLPLSRKREVFGLYPPPCTPPGSCSLLECSGAAMRWRPASLSECFDAAFVRSDSPSSHQHLLCATDCAGSVTVAEEVTVFNAQETNNPFLVDADLVHRNLLTKEAYEHSIGSSLTTIAAQFRYTSFEWVEATAAAAVGLRVRSSAAPHLVNCVDMLRVVHISQLPYTRQQELVAEIPRMTLIKSMTISYIFYHTRWRHHKSMELMRPLLHSNIPCCDTPQAQALQPLLWIAVDLDMEFRGPVMECARHSRTQFYNSQQLEVDTCAVPSRS | soluble
GPGSMWVEAYRAGCAEVSADVREDVSSSGATGELIVRGNTFDNFKNRVTDTDVQAILAALRVCPGMSALYLPYNNITSEGGVLLGKALGHQLDSIITLDVQYNSLGAEAGVAIAQGLQRNDSLCHVTLAGNPLGGCCGAALGEALRQNMNLAVLDLFNTDLGMEALVHICRSLEGNKGLSSLNIGRPLLHGVDELESVVNHLSIALQRNSTLEELHMAYFGLVDDCLQTLVLALCGSAVTTLCIKGNKVSQDAGQLLARLLDRRQDFRNLDVSCNRLRDAGAAALAKGVAHHPQLESLGLESCTISERGLVVLVESLKSCATVRRLTLWGNDVTPAVASSLTATFCDLRELDYIDVGVMEQDGQLVAYRA | not soluble
GPGSMYKLPIEAQFNLIEEEFAAIEASTMNPRLYNFTTSNANPTKNRYINVLANEETIFPPTSLTSAPPTTGGSRLSTSGSPPSMASAPSPMKSLTGRAQKIWGVAGQRLFGTRRGGTLPRDVEGNEKFTTGCVTKKYPQWYINANVVDTSVEPVFVASQAPVQECIDDFLAVIYSCEVTLVLMLTELEEAGFVKADRYWPEDSAPADRIESFGSMCVYKDEQDPYTCDAAHELVRRSFYIRPSAASQARAHKIVMYQYVGWPDRGVPDSTESFEELLKIIQGYVMASPAPRVPAAGPESAAHSSIATNSGGDGSTSNTGSGEGSGKLTPPVFVHCSAGIGRTGTLIGAYTAVKLTEAGLLTNTSIRRIVTDMRKARFGMVQRVEQYMFLYMIVLQHMGVDARKFSARMQPRADLYNMRWMEARQKALLGARAAKR | not soluble
GPGSMYSYNNIIEKNEPCKKDVIENLQLSLSPTGAVRQFRVDERVDVVVVEGFLSNDECDQLIAACEKVGYTFWRQKDPNAEGEEAGCCGEAEARAFRVVDTIEANFPTLSQVLSSRIEKVVKLDPKTFSPSMEGAEELFARDLEGTWVPQQLAQNLLFARYGAGGHFSPHIDGSTIVDINTRSLYTLLIYLNDCEAGGETVLFDGEQAEVLKRDAESGKYIGRRENRIGAVKPTKGTAAFFYYDVLHEGSPVGEGHSKYIIRGDFLYRRNPPILTAENDMKAFELYEKARVAESNGDVFAACEMFQRVRKLSKGVAELYQL | soluble
GPGSVPPKKPTEVPKLVRINTNEKGITNVQLARAPVNSMSLELFQELNQWMLWLGCNEETKAVIISSAIPTVFSAGLEFSEVHNPKPDRIAVFWQSFQEMWRILDTFPKPIIAAITGNSPAAGCIIAMGCDYRVMARGPKGNTNNNRLYRIGLNETKLGLVPPPWTVSAYAYLLGSRQAEEMLQLGETPVADDARNLGLIDEVAADEERAIEVAYQQAERFLSVPQEARRVSRDMARCEYLRLLATEDDRNYDTEFFTQYMLRPEVQKNLESYLERLKSRSRK | not soluble
GPGSWIVSRGLNYSDPMNSVVARWVQHSRVRRLTTPISCFGLFIFTATCMQLPYDFRLLREASAGIDRQTALLKKSMDERYLAYREGKIAKEQLEAKEAEAFAKSMKVQ | soluble
GPLGSAGSSWQCDTCLLQNKVTDNKCIACQAAKLPLKETAKQTGIGTPSKSDKPASTSGTGFGDKFKPAIGTWDCDTCLVQNKPEAVKCVACETPKPG | soluble
GPLGSATITQDTPINQIFTDTALAEKMKTVLGKTNVTDTVSQTDLDQVTTLQADRLGIKSIDGVEYLNNLTQINFSNNQLTDITPLKNLTKLVDILMNNNQIADITPLANLTNLTGLTLFNNQITDIDPLKNLTNLNRLELSSNTISDISALSGLTSLQQLSFGNQVTDLKPLANLTTLERLDISSNKVSDISVLAKLTNLESLIATNNQISDITPLGILTNLDELSLNGNQLKDIGTLASLTNLTDLDLANNQISNLAPLSGLTKLTELKLGANQISNISPLAGLTALTNLELNENQLEDISPISNLKNLTYLTLYFNNISDISPVSSLTKLQRLFFYNNKVSDVSSLANLTNINWLSAGHNQISDLTPLANLTRITQLGLNDQAWTNAPVNYKANVSIPNTVKNVTGALIAPATISDGGSYTEPDITWNLPSYTNEVSYTFSQPVTIGKGTTTFSGTVTQPLKA | soluble
GPLGSMATVPVYCVCRLPYDVTRFMIECDACKDWFHGSCVGVEEEEAPDIDIYHCPNCEKTHGKSTLKKKRTWHK | soluble
GPLGSMPYSDAKAMLDEVAKIRELGVQRVTRIENLENAKKLWDNANSMLEKGNISGYLKAANELHKFMKEKNLKEDDLRPELSDKTISPKGYAILQSLWGAASDYSRAAATLTESTVEPGLVSAVNKMSAFFMDCKLSPNERATPDPDFKVGKSKILVGIMQFIKDVADPTSKIWMHNTKALMNHKIAAIQKLERSNNVNDETLESVLSSKGENLSEYLSYKYATKDEGREHRYTASTENFKNVKEKYQQMRGDALKTEILADFKDKLAEATDEQSLKQIVAELKSKDEYRILAKGQGLTTQLLGLKTSSVSSFEKMVEETRESIKSQERQTIKIK | soluble
GPMNQLDQLGTRINLICNVFDKWIGQQDLNYNLFAVLYTLATEGSRTQKHIGEKWSLPKQTVSGVCKTLAGQGLIEWQEGEQDRRKRLLSLTETGKAYAAPLTESAQEFSDKVFATFGDKRTTRLFADLDALAEVMEKTISENKK | soluble
GPRRLSIEGNIAVGKSTFVKLLTKTYPEWHVATEPVATWQNIQAAGNQKACTAQSLGNLLDMMYREPARWSYTFQTFSFLSRLKVQLEPFPEKLLQARKPVQIFERSVYSDRYIFAKNLFENGSLSDIEWHIYQDWHSFLLWEFASRITLHGFIYLQASPQVCLKRLYQRAREEEKGIELAYLEQLHGQHEAWLIHKTTKLHFEALMNIPVLVLDVNDDFSEEVTKQEDLMREVNTFVKNL | soluble
GPTTPVPVSGSLEVKVNDWGSGAEYDVTLNLDGQYDWTVKVKLAPGATVGSFWSANKQEGNGYVIFTPVSWNKGPTATFGFIVNGPQGDKVEEITLEINGQVI | soluble
